Measured values published in PMC5830076.

Molecular target: ARΔ423-448 (Flag-AR with residues 423 to 448 removed) (human) (UniProt P10275)
Test: proximity ligation

reduction of the interaction against WT AR (PLA): 40%
Substance: Myc-RAP74-CTD (from UniProt P35269 450-517) (domain or fragment)
